Results from a protein production outcome set (Wang et al. 2014).

Test: label from the status in PepcDB records

Row | Sequence | protein production
1 | MFDATRAAFLGVAVFISVLLVASFFSPTPGRAVEPAPAGAPAQEGSLPHDGLGSIKPIHDVDLGGVEQPPLPAPVDPDPSFNPQPPFAPGELREGFVDVGNGNIRRYLIHVGTNYQPHAPELTPVVFGFGGWKDTPEKFADYSRFGLTDFGANAMIIYPEGIARAWEGAPYAATRVGDDVHFVRTILNAVDADYRIDRSRVYAVGMSNGGGMAASLACHAPDLVAGVVSVSAAYYEPVVADCAPGAVATLDIHGTHDEVIAYQGGMRHGAPFLGAEQVVAGVAARNGCGPALPPRWIEGPAEHYGFAGCAAPVEHVRVLGQKHVWNGVPHATTLAWEFLHHQHK | failed
2 | MAHSGDNHSSEFCMLRSLSASIGADPLLVQGAGGNTSIKQAGVLWIKASGTWLKNARDDEIMVPVALAPLLDAVSHRSPAAEAAGQFTLADLNPRQLRPSIETTVHALLPQKIVVHVHCVETISIAVQANAEALLEGRLRGLDWAFVPYRRPGLPLAQAIAERLKPATNVLVLGNHGLVVAADTVAEAALLLQRVTGLLARQPRPAPPPDLDALLRLAAGSDYRLPASTAAHAVATDLASCRIAASGSLYPDHVIFLGVGSVIAGPGENAAAVVARTAAAPTSILFPGKGVLMRREANAGAEAMARCLADVVARVDGAARVNYLSPKENAELLNWDAEKYRQQLNREGATLQLEHHHHHH | failed
3 | MTSKRKRWTAQAAKLPSPMGGLALAIASLGWTWESVMPSLNGWGQLTGAMIASALLLMLTGKFLLHPTVLKNELSHPVIGSVIPTFAMALMVVSNLLGHYFPHAGLALWLGAIAIHVVFLGAFIYYRAIDFKLEHMVPSWFVPPIGIIVAAVSFPSNGEPWLVNTILAFGMLAYLIMLPLMLYRLIFCQAIPDAAKPTIAILAAPASLSLAGYLTVCEQPSIAVVAILVSIAILMTSVIYLAFFHLLKLPFSPGYAAFTFPMVIGATALFKTAHWLEQFSQMAELTEWVRLLADFELGVATIVVAYVALRYLTHYVPNPVENIGSTTSVQLK | failed
4 | MVADAAAAGSGGVGVCARWPRASAEGARMKLTPRVHDWYVGRVVLSTVLLTWAVLLGLDLVNAFASEAKDIGQGSYTFGHAVAYVAYTVPRRAYTLFPTAAVIGALMGLGQLAATSELTALRALGVSRKRMSASVVAAMALLTASMVISGETIGPWAQNQADTLKASARYNSDMAASLYAGLWAREGDTFLNALSGEEKLLDGGDTALDLHDVRLYHLDSSGRMQQLTYASVAEHRDGRWTLRQVRRDTFQERSVQRETFPELPWQSQLNPAALAAGLAKPRNLSAHDLEQSIEYRSRNGLDARDYEDQYWSRWFYPLNVLALCMAAIPFSFGSLRSGGLGKRLFLGILFALGFWLLQLFFGRMAGALKLDYRIAYALPPMVMLGVSAWLFRRRSS | failed
5 | MFLIILIKSLIIGGLVGVGVGAGAARMFHAPTTQGMGAFRTLGELNSCEGDPASHFSFGLGFFFNAWASSVAAGSFTQDVDHRIIPNWGAAALMLKNRNVGETLHDPKKMAISCGIIGMIVVAFLNLTASSVPEALQVTAVKVLVPAANLLVNTVMPVIFWLAAIDAGKKSGFWATIFGGAAQLIMGNAVPGLVLGILIGKGVEESGWNRVTKVMMVAIVALFVLSGFFRGFDMKMIESFHLTVPNWLDMIHNSLSGK | failed
6 | YLYFNSDSFILLIAPTRSGKGVGVVIPNLLVYNQSMVILDLKQENFSITSKYRAKYGQQVFLFNPFTENGQTHRYNPLSYVREGDCKIGDILTITASFYPIDDLKNSFWNNQASNLFLGLALMISETPSLPFTIGELLRQSSGKGKPLKEYLQGIMDDREKSSSPLSESCIDALNRFIALTDNSLSNVLASFNAPLTLWANPLFDAATSANDFDLRELRKKKMTVYIGITPDYLEQAERILNLFFSQLININTKELPEHNPELKYQCLLVMDEFTAMGRIGILAKSVSYMAGYGLRLLTIIQAPSQLDSVYGKEEARTYKTNHAGQILFAPRENEDAEEYSKAIGYKTVKAKSNSKTRGELKQTDSTSDQRRAVMLPQEIKEIGMWKEIICIENLKPIFCKKVQYFNDPVFIDRLKEVSS | failed
7 | MLTGNKPAVQRRFIGLLMLSVLVAGCSSNPLANFAPGYPPTIEPAQPAVSPPTSQDPAGAVRPLSGHPRAALFDNGTRQLVALRPGADSAAPASIMVFDDVHVAPRVIFLPGPAAALTSDDHGTAFLAARGGYFVADLSSGHTARVNVADAAHTDFTAIARRSDGKLVLGSADGAVYTLAKNPAVDPASGAATVASRTKIFARVDALVTQGNTTVVLDRGQTSVTTIGADGHAQQALRAGQGATTMAADPLGRVLIADTRGGQLLVYGVDPLILRQAYPVRQAPYGLAGSRELAWVSQTASNTVIGYDLTTGIPVEKVRYPTVQQPNSLAFDETSDTLYVVSGSGAGSRFIEHAAGTR | failed
8 | RGIAVYVEHHNGNIHPVTYELIGKAREMASKIKQPVYCVFVGKDIKDKCSNLISYGVDEVFVYDEDEFKDFRIEPYSKAIENFIDKIKPTIVLVGGTTLGRSLAPRLAARFRTGLTADCTILDIQSNTDLDQIRPAFGGNIMAHINTPNNRPQFATVRYKIFSAPEKIENTTGKITLCKVEKKELKSKIKVLS | not failed
9 | MPTYEELSQAVFEGDEAQVVELTRSLLSGGAEPLEVINKGLIAGMDRVGVLFKNNEMFVPEVLMSANAMNAGVEVVKQSQQAFDMPSVGKIVLGTVKGDLHDIGKNLVAMMLESGGFTVYNLGVDIEPGKFVEAVKKYQPDIVGMSALLTTTMMNMKSTIDALIAAGLRDRVKVIVGGAPLSQDFADEIGADGYAPDAASATELCRQLLE | not failed
10 | ADNRAKKHGHADLSIYREWVDEHPTVFTGYDELTTDSKVLGLLSAGNKVNEIKAGEEVEVILEASPLYAEAGGQLGDRGQILMGDTVLKVNDVQKIGKKLWVHKATVAQGGLSVGDVVTAQVDSDWRHAARQAHTGTHLIHAALRQVLGPTAVQAGSMNKPGYLRFDFNYTESLTPRQLEEIQNITNQAVDSDWDVNTIETSLEEAKAMGALALFGENYGSEVRVIEVGGPFSIELCGGTHVTHSSQIGPVAILGESSVGSGVRRIEAYTGLDSFKYLAKEQALVENIASSMKVKPEELPDRIAALTQKLKDAEKAIADMRSAQLMAQATGLVAGAIEVNGVKLVAQRVSDVENMGDLRSLAADIKQRLDDVPAVVALVGEDASGKAPFVVGATKAAVSAGYKANAYAKILGQYIEGNGGGKPDMAQGSARNSSGFDQGIAAVKAEMSA | failed
11 | MGNKRFRSDNNAGKPTSVEATRIWATKVIEDFRASGNEVYTFEHNLSNNERGVIHQMCRKMGIQSKSSGRGEQRRLSIFKSRHKNGNKNEANEKSNKEKLKCVSFPPGADVILQELFTHYPPCDGDTAATSFTKYSGNKGKQGQWKDDFFRKPQISSEEILEKVASLSSRLKKDKALKEITKLRSKLPITSFKDAITSAVESNQVL | failed
12 | MHKYRLVAKKGEGTFSEVLKAQCIKNGKYVAIKCMKNHFDSLDQVNNLREIQALRRLSPHANIIKLLEVLYDQPTGRLALVFELMDMNIYELIRGRRHYVAEERIKNYMYQLMKSMDHMHRNGIFHRDIKPENILIMDDCLKLADFGSCRGIYSKQPYTEYISTRWYRAPECLLTDGYYNYKMDMWGVGCVFFEIVSLFPLFPGTNELDQITKIHNILGTPPPDLLAKMKKRSAHMDFNFPPKEGSGVAKLIPHVNPECVDLIVKLLMYNPDERLSARQALRHPYFRDLREAEKRQKALLAPDVSNHFTAMEADKARQQQTVSSTGSDHEHPTSAGGDGGAGTGAVGTHDGSAAAAAAAAALPSISGARGHAGPEGGHDNDMG | not failed
13 | MERAVVQRARPLARRPLVTLLTAAALAASGLTALTSAARAADADLARNGGFESALDGWTCTAGTTVTSPVHGGTSALKATPAGADNARCSQTVSVKPDSPYTLSGYVRGTYVYLGASGTGTTDVSTWAQSAPDWQQLTTTFRTGPSTTRVTIYTHGWYGTGAYHADDISLTGPGGETQQPPAVPGGLKTGSVTSSAVALSWSPVPGATGYAVYRDGAKVSTVTGTSTTVTGLTPSTAYSFQVTAVNDAGESARSATVTATTAQRPDDGGGSSDLPAHALVGYLHASFANGSGYTRMADVPDSWDVIDLAFGEPTSVTSGDIRFERCPVAECPNVESDAEFKAAIKAKQAAGKKVLISIGGQNGQVQLTSTAARDKFVSSVSAIIDEYGLDGLDIDFEGHSLSLNADDTDFKNPKTPVIVNLVSAVKTLKAKYGDGFVLTMAPETFFVQLGYQYYGTGKWGGQDPRAGAYLPVIHALRDDLTLLHVQDYNSGSIMGLDNQYHSMGGADFHIAMTDMLLTGFPVAGDANNVFPPLRPDQVAIGMPASTQAGNGHVSPAEVTKALNCLTKKTDCGSYATHGTWPDLRGLMTWSINWDRYSNWEFQKNFDAYFG | failed
